Experiments:
[1] = molecular target: cynomolgus monkey IgE (cynomolgus monkey); test: capture ELISA, antibody coated; Test 2, Cyno 5 serum
[2] = molecular target: cynomolgus monkey IgE (cynomolgus monkey); test: capture ELISA, antibody coated; Test 1, Cyno 5 serum
[3] = molecular target: cynomolgus monkey IgE (cynomolgus monkey); test: capture ELISA, antibody coated; Test 1, Cyno 7 serum
[4] = molecular target: cynomolgus monkey IgE (cynomolgus monkey); test: capture ELISA, antibody coated; Test 2, Cyno 7 serum
[5] = molecular target: cynomolgus monkey IgE (cynomolgus monkey); test: capture ELISA, antibody coated; Test 1, Cyno 1 serum
[6] = molecular target: cynomolgus monkey IgE (cynomolgus monkey); test: capture ELISA, antibody coated; Test 1, Cyno 2 serum
[7] = molecular target: cynomolgus monkey IgE (cynomolgus monkey); test: capture ELISA, antibody coated; Test 2, Cyno 2 serum
[8] = molecular target: cynomolgus monkey IgE (cynomolgus monkey); test: capture ELISA, antibody coated; Test 1, Cyno 3 serum
[9] = molecular target: cynomolgus monkey IgE (cynomolgus monkey); test: capture ELISA, antibody coated; Test 2, Cyno 3 serum
[10] = molecular target: cynomolgus monkey IgE (cynomolgus monkey); test: capture ELISA, antibody coated; Test 2, Cyno 1 serum

IgE concentration detected [1]: 252 ng/mL
IgE concentration detected [2]: 232 ng/mL
IgE concentration detected [3]: 0 ng/mL
IgE concentration detected [4]: 0 ng/mL
IgE concentration detected [5]: 172 ng/mL
IgE concentration detected [6]: 52 ng/mL
IgE concentration detected [7]: 104 ng/mL
IgE concentration detected [8]: 166 ng/mL
IgE concentration detected [9]: 135 ng/mL
IgE concentration detected [10]: 146 ng/mL
Substance: E25 (omalizumab) (antibody)
